# Experimental data as given in patent publication EP2718310B1 (TLA Targeted Immunotherapies AB, dated 2017).
# T1: hCCR2b (human, UniProt P41597 1-374)
# T1 chain: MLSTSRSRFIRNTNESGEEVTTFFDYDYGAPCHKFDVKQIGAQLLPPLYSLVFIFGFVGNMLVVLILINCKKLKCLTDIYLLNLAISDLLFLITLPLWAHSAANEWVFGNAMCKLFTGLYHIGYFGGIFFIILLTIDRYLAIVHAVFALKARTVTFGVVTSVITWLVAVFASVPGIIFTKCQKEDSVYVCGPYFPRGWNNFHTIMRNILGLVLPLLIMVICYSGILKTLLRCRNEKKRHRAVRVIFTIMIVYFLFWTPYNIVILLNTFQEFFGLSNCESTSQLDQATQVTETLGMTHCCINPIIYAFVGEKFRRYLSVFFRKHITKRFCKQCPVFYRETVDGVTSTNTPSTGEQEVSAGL
# Assays:
# CCR5 (human) [1] = molecular target: CCR5 (human) (UniProt P51681); experiment: cell-based or functional assay
# Sequence of CCR5 (human) (P51681 whole entry): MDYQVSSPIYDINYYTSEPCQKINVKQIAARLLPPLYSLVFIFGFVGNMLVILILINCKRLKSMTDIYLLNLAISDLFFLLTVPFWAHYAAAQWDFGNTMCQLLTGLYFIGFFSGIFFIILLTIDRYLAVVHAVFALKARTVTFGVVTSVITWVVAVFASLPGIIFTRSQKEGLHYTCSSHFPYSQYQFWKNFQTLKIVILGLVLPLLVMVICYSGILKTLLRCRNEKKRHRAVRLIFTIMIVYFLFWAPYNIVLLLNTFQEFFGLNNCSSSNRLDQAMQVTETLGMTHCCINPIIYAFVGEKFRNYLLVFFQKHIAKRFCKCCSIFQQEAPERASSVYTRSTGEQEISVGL
# CCR1 = CCR1 (UniProt P32246); experiment: in vitro depletion: biotinylated RANTES coupled matrix, flow cytometry for CCR1, 3 or 5-expressing cells (receptor not singled out)
# Sequence of CCR1 (P32246 whole entry): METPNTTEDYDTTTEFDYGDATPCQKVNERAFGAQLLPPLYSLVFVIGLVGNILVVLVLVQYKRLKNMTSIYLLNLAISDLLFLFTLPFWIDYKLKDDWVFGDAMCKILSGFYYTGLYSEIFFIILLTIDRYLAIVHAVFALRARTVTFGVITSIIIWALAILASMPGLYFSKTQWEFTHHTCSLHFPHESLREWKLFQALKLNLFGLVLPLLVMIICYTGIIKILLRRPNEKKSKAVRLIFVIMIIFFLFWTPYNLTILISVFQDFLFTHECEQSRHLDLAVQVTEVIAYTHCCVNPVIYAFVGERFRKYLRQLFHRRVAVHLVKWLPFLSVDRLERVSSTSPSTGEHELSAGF
# CCR3 (human) [2] = molecular target: CCR3 (human) (UniProt P51677); experiment: as above
# Sequence of CCR3 (human) (P51677 whole entry): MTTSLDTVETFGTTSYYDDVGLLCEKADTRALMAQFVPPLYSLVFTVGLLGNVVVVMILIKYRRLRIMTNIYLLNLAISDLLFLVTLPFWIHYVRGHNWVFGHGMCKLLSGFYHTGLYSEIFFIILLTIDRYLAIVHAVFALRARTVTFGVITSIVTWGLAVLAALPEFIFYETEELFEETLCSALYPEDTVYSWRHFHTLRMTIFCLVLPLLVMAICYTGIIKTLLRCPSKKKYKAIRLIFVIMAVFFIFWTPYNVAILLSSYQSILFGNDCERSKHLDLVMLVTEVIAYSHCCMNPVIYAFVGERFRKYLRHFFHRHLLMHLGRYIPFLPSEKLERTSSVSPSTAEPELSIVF
# CCR5 (human) [3] = molecular target: CCR5 (human) (UniProt P51681); experiment: as above
# CCR9 (human) = CCR9 (human) (UniProt P51686); experiment: cell-based or functional assay
# Sequence of CCR9 (human) (P51686 whole entry): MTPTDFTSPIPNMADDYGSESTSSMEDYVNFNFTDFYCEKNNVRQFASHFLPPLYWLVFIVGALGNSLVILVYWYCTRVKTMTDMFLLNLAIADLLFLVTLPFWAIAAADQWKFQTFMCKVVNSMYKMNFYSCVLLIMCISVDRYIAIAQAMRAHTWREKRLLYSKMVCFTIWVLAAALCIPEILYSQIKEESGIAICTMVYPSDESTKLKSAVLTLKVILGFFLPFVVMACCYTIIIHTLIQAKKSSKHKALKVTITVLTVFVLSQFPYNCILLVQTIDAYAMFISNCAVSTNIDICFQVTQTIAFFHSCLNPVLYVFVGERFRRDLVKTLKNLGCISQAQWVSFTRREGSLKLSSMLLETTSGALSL
# CCR3 (human) [4] = molecular target: CCR3 (human) (UniProt P51677); experiment: cell-based or functional assay
# CCR3 (human) [5] = molecular target: CCR3 (human) (UniProt P51677); experiment: in vitro depletion: blood passed through magnetic column with eotaxin coupled MACS beads, flow cytometry for CCR3-expressing cells
# hCCR2b = molecular target: T1, hCCR2b; experiment: cell-based or functional assay
molecule,measurement,setting,value
biotinRANTES (CCL5) (ligand),"EC50, Aequorin assay (agonist activity)",CCR5 (human) [1],0.0005 µM
biotinylated RANTES coupled matrix (ligand),reduction of receptor-expressing cells by the column,CCR1,20%
same,reduction of receptor-expressing cells by the column,CCR3 (human) [2],20%
same,reduction of receptor-expressing cells by the column,CCR5 (human) [3],20%
recombinant native TECK (from UniProt O15444 24-150) (ligand),"EC50, Aequorin assay (agonist activity)",CCR9 (human),0.0679 µM
biotinTECK(Met to Nleu substitution) (ligand),"EC50, Aequorin assay (agonist activity)",CCR9 (human),0.0636 µM
recombinant native eotaxin (ligand),"EC50, Aequorin assay (agonist)",CCR3 (human) [4],0.0107 µM
biotinEotaxin (CCL11) (ligand),"EC50, Aequorin assay (antagonist)",CCR3 (human) [4],0.212 µM
biotinylated eotaxin coupled matrix (ligand),reduction of receptor-expressing cells by the column,CCR3 (human) [5],25%
biotinMCP-2 (CCL8) (ligand),"EC50, Aequorin assay (partial agonist)",hCCR2b,0.0509 µM
"recombinant native MCP-2 (ligand, UniProt P80075 24-99, looked up) QPDSVSIPITCCFNVINRKIPIQRLESYTRITNIQCPKEAVIFKTKRGKEVCADPKERWVRDSMKHLDQIFQNLKP","EC50, Aequorin assay (partial agonist)",hCCR2b,0.0235 µM
